Test results reported in paper doi:10.1101/728246 (bioRxiv, 2019).

Key:
SEC = target: the molecule itself; assay: SEC
[1] = target: the molecule itself; assay: negative-stain EM single-particle reconstruction

Protein | stoichiometry N (SEC) | stoichiometry N [1]
Mycobacterium tuberculosis Mfd (transcription-repair coupling factor) (natural protein) MTAPGPACSDTPIAGLVELALSAPTFQQLMQRAGGRPDELTLIAPASARLLVASALARQGPLLVVTATGREADDLAAELRGVFGDAVALLPSWETLPHERLSPGVDTVGTRLMALRRLAHPDDAQLGPPLGVVVTSVRSLLQPMTPQLGMMEPLTLTVGDESPFDGVVARLVELAYTRVDMVGRRGEFAVRGGILDIFAPTAEHPVRVEFWGDEITEMRMFSVADQRSIPEIDIHTLVAFACRELLLSEDVRARAAQLAARHPAAESTVTGSASDMLAKLAEGIAVDGMEAVLPVLWSDGHALLTDQLPDGTPVLVCDPEKVRTRAADLIRTGREFLEASWSVAALGTAENQAPVDVEQLGGSGFVELDQVRAAAARTGHPWWTLSQLSDESAIELDVRAAPSARGHQRDIDEIFAMLRAHIATGGYAALVAPGTGTAHRVVERLSESDTPAGMLDPGQAPKPGVVGVLQGPLRDGVIIPGANLVVITETDLTGSRVSAAEGKRLAAKRRNIVDPLALTAGDLVVHDQHGIGRFVEMVERTVGGARREYLVLEYASAKRGGGAKNTDKLYVPMDSLDQLSRYVGGQAPALSRLGGSDWANTKTKARRAVREIAGELVSLYAKRQASPGHAFSPDTPWQAELEDAFGFTETVDQLTAIEEVKADMEKPIPMDRVICGDVGYGKTEIAVRAAFKAVQDGKQVAVLVPTTLLADQHLQTFGERMSGFPVTIKGLSRFTDAAESRAVIDGLADGSVDIVIGTHRLLQTGVRWKDLGLVVVDEEQRFGVEHKEHIKSLRTHVDVLTMSATPIPRTLEMSLAGIREMSTILTPPEERYPVLTYVGPHDDKQIAAALRRELLRDGQAFYVHNRVSSIDAAAARVRELVPEARVVVAHGQMPEDLLETTVQRFWNREHDILVCTTIVETGLDISNANTLIVERADTFGLSQLHQLRGRVGRSRERGYAYFLYPPQVPLTETAYDRLATIAQNNELGAGMAVALKDLEIRGAGNVLGIEQSGHVAGVGFDLYVRLVGEALETYRDAYRAAADGQTVRTAEEPKDVRIDLPVDAHLPPDYIASDRLRLEGYRRLAAASSDREVAAVVDELTDRYGALPEPARRLAAVARLRLLCRGSGITDVTAASAATVRLSPLTLPDSAQVRLKRMYPGAHYRATTATVQVPIPRAGGLGAPRIRDVELVQMVADLITALAGKPRQHIGITNPSPPGEDGRGRNTTIKERQP | 6 | 12
Mycobacterium smegmatis Mfd (natural protein) MTAPGHTSVQTPIAGLVELALSDPSLQDVIRRAADRPADLALVGPASARVLVAAALAQNGPLLVVAATGREADELTAELRGVFGDSVALFPSWETLPHERLSPGVETVGARLMLLRRLARPDDETLGAPLRVVVTTTRSLLQPMAPDLVDIEPVTLSVGAEMEFEDVVARLVDLSYTRVDMVGKRGEFAVRGGILDVFPPTAEHPVRVEFWGDEISEMRAFAIADQRSIPEVPVQTVVAVPCRELLMTDDVRERAAALAAEHPTTENTVPGTVPDMLAKLAEGIPVDGMEALLPLLHPIEPTTLTRHLPEGAPVLVCDPEKVRTRAADLIKTGREFLEASWSTAAVGGDAPIDLEALGASGFVTFEEAREAAREGGHPWWTLSQLSDESAVELDIRSAPSARGSQHNLEEIFAMLRAHVATGGYAAVVTPGIGTAHRVVEQLGEADTAATILEPGTAPKAGVVGVLKGPLCSGVVLPGANLVIITETDLTGNRVTANEGRKLAAKRRNVVDPLALTAGDLVVHDQHGIGKFVEMTERVVGGARREYLVLEYASSKRGGGTDKLYVPMDSLDQLSRYVGGEAPSLSRLGGSDWANTKTKARRAVREIASELVALYAKRQSAPGHAFGPDTPWQAEMEDAFGFTETIDQLTAIQEVKSDMEKPVPMDRVICGDVGYGKTEIAVRAAFKAVQDGKQVAVLVPTTLLADQHLQTFTNRMAGFPVTVKGLSRFTDPAESRAVIEGLKDGSVDVVIGTHRLLQTGVTWKDLGLIIVDEEQRFGVEHKEHIKSMRTHVDVLTMSATPIPRTLEMSLAGIREMSTILTPPEERYPVLTYVGPHDDKQVAAALRRELLRDGQAFYIHNRVRTIDEAAARVRQLVPEARVVVAHGQMNEETLEKTVEGFWNREYDILVCTTIVETGLDISNANTLIVERADTFGLSQLHQLRGRVGRSRERGYAYFLYPPNKPLTETAYDRLATIAQNNELGAGMAVAMKDLEIRGAGNVLGAEQSGHVAGVGFDLYVRLVGEAVEAYRAAADGKTVATPQEQKDVRIDLPVDAHLPPEYIGSDRLRLEAYRRLAAAADDDAVASVVDELIDRYGPLPEPAQRLVAVARLRLLCREFGITEIGAVSASTVRLSPMVLPDSAQLRLKRMYPGGHYRATTSTVQVPLPRAGEGVGAPRIRDLELVQWVAGLVLVLNGKGQGDVDMSKFSNPAGEAKR | 6 | –
